From patent publication US20090074795A1, “Methods for addressing ocular diseases through interference with the wnt signaling pathway” (priority 2007, published 2009)

How the values were obtained:
HUVEC = test: DKK1 on VEGF over-expression in HUVEC transfected with VLDLR siRNA; type: cell-based; conditions: 10 μg/ml human DKK1, 24 hours, ELISA and RT-PCR, vs BSA
Protocol: The regulatory roles of VLDLR and the wnt pathway in VEGF expression in cultured endothelial cells was also investigated.
Vldlr^−/− mice received a subretinal injection of 5 μg purified mouse DKK1 into the right eyes, and the same amount BSA into the left eyes. According to embodiments shown in FIG. 9A, The eyecups were dissected 24 h following the injection for the following analyses, phosphorylated β-catenin and VEGF levels were measured by Western blot analysis of a representative mouse eyecup using the anti-phosphorylated β-catenin and anti-VEGF antibodies, respectively. According to embodiments shown in FIG. 9B, VEGF protein levels in Vldlr^−/− eyecups were measured using ELISA. According to embodiments shown in FIG. 9C, VEGF mRNA levels in the Vldlr^−/− eyecups were measured using quantitative real-time RT-PCR. Values are mean±SD (n=4). According to embodiments shown in FIGS. 9D-9G, Vldlr^−/− mice were injected with 5 μg/eye BSA into the subretinal space of the left eye (FIGS. 9D and 9F) and the same amount of DKK1 into the right eye (FIGS. 9E and 9G). […] VEGF protein was measured in the culture medium by ELISA (FIG. 9H) and the VEGF mRNA measured in the cells by real-time RT-PCR, normalized by 18s RNA and expressed as arbitrary unit (mean±SD, n=3) (FIG. 9I), 24 hours after the addition of DKK1. […]

[1] = test system: bovine retinal capillary endothelial cells (BRCEC); test: Intracellular ROS generation assay in BRCEC; type: cell-based; conditions: DKK1 6.25-100 nM, 2 h, CM-H2DCFDA
Protocol: A primary culture of bovine retinal capillary endothelial cells (BRCEC) were exposed to 30 mM glucose or TNF-α in the absence or presence of various concentrations of DKK1 (6.25-100 nM) for 2 h. Aminoguanidine was used as a positive control as it is a known inhibitor of ROS generation.
According to embodiments of experimental data shown in FIG. 14, BRCEC were exposed to 30 mM glucose or 1 μg/ml TNF-α in the absence or presence of various concentrations of DKK1 (6.25-100 nM) for 2 h, 10 μM aminoguanidine (AG) was used as positive control. Intracellular ROS generation was measured using CM-H2DCFDA, and expressed as fluorescent unit per well (means±SD, n=3).

B1: DKK1: Purified Dickkopf-1 protein (R&D System), specific inhibitor of the wnt pathway binding LRP5/6; mouse protein in mice, human in HUVEC (protein, UniProt O54908 32-272; O54908 32-272, looked up)
Dickkopf-related protein 1 1: TLNSVLINSNAIKNLPPPLGGAGGQPGSAVSVAPGVLYEGGNKYQTLDNYQPYPCAEDEECGSDEYCSSPSRGAAGVGGVQICLACRKRRKRCMRHAMCCPGNYCKNGICMPSDHSHFPRGEIEESIIENLGNDHNAAAGDGYPRRTTLTSKIYHTKGQEGSVCLRSSDCAAGLCCARHFWSKICKPVLKEGQVCTKHKRKGSHGLEIFQRCYCGEGLACRIQKDHHQASNSSRLHTCQRH
Dickkopf-related protein 1 2: TLNSVLINSNAIKNLPPPLGGAGGQPGSAVSVAPGVLYEGGNKYQTLDNYQPYPCAEDEECGSDEYCSSPSRGAAGVGGVQICLACRKRRKRCMRHAMCCPGNYCKNGICMPSDHSHFPRGEIEESIIENLGNDHNAAAGDGYPRRTTLTSKIYHTKGQEGSVCLRSSDCAAGLCCARHFWSKICKPVLKEGQVCTKHKRKGSHGLEIFQRCYCGEGLACRIQKDHHQASNSSRLHTCQRH
modifications: mouse protein in mice, human in HUVEC
Question: Which results are given for B1?
Answer: VEGF over-expression induced by the VLDLR siRNA (HUVEC): blocked the VEGF over-expression; ROS generation induced by TNF-α ([1]; 1 μg/ml TNF-α): blocked the ROS generation; ROS generation induced by high glucose ([1]; 30 mM glucose): blocked the ROS generation
